Publication PMC12088422 (Proceedings of the National Academy of Sciences of the …, 2025)

Molecular target: the molecule itself
Assay: SEC-MALS

B1: Pseudomonas aeruginosa PAO1 glutamyl-tRNA synthetase (enzyme, UniProt Q9XCL6 1-494, looked up)
chain: MTTVRTRIAPSPTGDPHVGTAYIALFNLCFARQHGGQFILRIEDTDQLRSTRESEQQIYDALRWLGIEWDEGPDVGGPHGPYRQSERGHIYKKYSDELVEKGHAFTCFCTPERLDAVRAEQMARKETPRYDGHCMHLPKDEVQRRLAAGESHVTRMKVPTEGVCVVPDMLRGDVEIPWDRMDMQVLMKADGLPTYFLANVVDDHLMGITHVLRGEEWLPSAPKLIKLYEYFGWEQPQLCYMPLLRNPDKSKLSKRKNPTSITFYERMGYLPQALLNYLGRMGWSMPDEREKFTLAEMIEHFDLSRVSLGGPIFDLEKLSWLNGQWIREQSVEEFAREVQKWALNPEYLMKIAPHVQGRVENFSQIAPLAGFFFSGGVPLDASLFEHKKLDPTQVRQVLQLVLWKLESLRQWEKERITGCIQAVAEHLQLKLRDVMPLMFPAITGHASSVSVLDAMEILGADLSRYRLRQALELLGGASKKETKEWEKIRDAIPG
stoichiometry N: 2
